Test results reported in article doi:10.1101/2023.02.25.529910 (bioRxiv, 2023).

Experiments:
SEC = biological target: the molecule itself; assay: SEC
crystal structure = biological target: the molecule itself; assay: crystal structure

Protein | binding result (SEC) | stoichiometry N (crystal structure) | other results
gpV-AA (full-length bacteriophage P2 gpV, H197A/H199A) (natural protein) MNTLANIQELARALRNMIRTGIIVETDLNAGRCRVQTGGMCTDWLQWLTHRAGRSRTWWAPSVGEQVLILAVGGELDTAFVLPGIYSGDNPSPSVSADALHIRFPDGAVIEYEPETSALTVSGIKTASVTASGSVTATVPVVMVKASTRVTLDTPEVVCTNRLITGTLEVQKGGTMRGNIEHTGGELSSNGKVLHTAKAPGDSGGTTGSPL | binds | – | –
gpV-FF (full-length bacteriophage P2 gpV, H197F/H199F) (natural protein) MNTLANIQELARALRNMIRTGIIVETDLNAGRCRVQTGGMCTDWLQWLTHRAGRSRTWWAPSVGEQVLILAVGGELDTAFVLPGIYSGDNPSPSVSADALHIRFPDGAVIEYEPETSALTVSGIKTASVTASGSVTATVPVVMVKASTRVTLDTPEVVCTNRLITGTLEVQKGGTMRGNIEHTGGELSSNGKVLHTFKFPGDSGGTTGSPL | binds | – | –
gpVdL-DEL (bacteriophage P2 gpV residues 97-196 plus an exogenous Leu197, Apex domain deleted) (domain or fragment) ADALHIRFPDGAVIEYEPETSALTVSGIKTASVTASGSVTATVPVVMVKASTRVTLDTPEVVCTNRLITGTLEVQKGGTMRGNIEHTGGELSSNGKVLHTL | – | – | binding result (crystal structure): binds
gpV-DEL (bacteriophage P2 gpV with the Apex domain deleted, ends at Thr196 plus an exogenous Leu197) (domain or fragment) MNTLANIQELARALRNMIRTGIIVETDLNAGRCRVQTGGMCTDWLQWLTHRAGRSRTWWAPSVGEQVLILAVGGELDTAFVLPGIYSGDNPSPSVSADALHIRFPDGAVIEYEPETSALTVSGIKTASVTASGSVTATVPVVMVKASTRVTLDTPEVVCTNRLITGTLEVQKGGTMRGNIEHTGGELSSNGKVLHTL | binds | – | –
gpVdL-AA (bacteriophage P2 gpV residues 97-211, H197A/H199A) (domain or fragment) ADALHIRFPDGAVIEYEPETSALTVSGIKTASVTASGSVTATVPVVMVKASTRVTLDTPEVVCTNRLITGTLEVQKGGTMRGNIEHTGGELSSNGKVLHTAKAPGDSGGTTGSPL | – | 3 | –
gpVdL-FF (bacteriophage P2 gpV residues 97-211, H197F/H199F) (domain or fragment) ADALHIRFPDGAVIEYEPETSALTVSGIKTASVTASGSVTATVPVVMVKASTRVTLDTPEVVCTNRLITGTLEVQKGGTMRGNIEHTGGELSSNGKVLHTFKFPGDSGGTTGSPL | – | 3 | –
